Test system: Bacillus subtilis
Assay: cleaved RNA product abundance (RNA/gDNA barcode ratio) relative to median wild-type variant (ratio to wild type); higher = more accumulation of the downstream cleavage product
Method: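 MPRA in B. subtilis. Mutagenized RNase Y cleavage-site regions (9% mutation rate) were inserted into a barcoded reporter mRNA (truncated aprE or tetM). Cells were grown in LB at 37°C to OD600 0.3. The cleaved RNA isoform was gel-purified and its barcodes counted; the RNA:gDNA barcode ratio was normalised to the median wild-type variant, and the median over barcodes is reported per variant. The printed sequence is the variable window only; the reporter flanks are not printed.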

[1] = experiment (reporter, strain, medium): exp 8a: truncated aprE reporter, strain BJT201 with 2% xylose (RNase J1 expressed), cleavage site: glnRA (positions -5 to +31 mutated)
[2] = experiment (reporter, strain, medium): exp 2b: truncated aprE reporter, strain BJT200, cleavage site: cggR-gapA (positions -7 to +36 mutated)
[3] = experiment (reporter, strain, medium): exp 4a: truncated aprE reporter, strain BJT201 with 2% xylose (RNase J1 expressed), cleavage site: cggR-gapA (positions -7 to +36 mutated)
[4] = experiment (reporter, strain, medium): exp 6: tetM reporter, strain 168, cleavage site: cggR-gapA (positions -7 to +36 mutated)

| Sequence | cleaved RNA product abundance [1] | cleaved RNA product abundance [2] | cleaved RNA product abundance [3] | cleaved RNA product abundance [4] |
| --- | --- | --- | --- | --- |
| CGACATGTCCCGCTTCTTTCATTAATCCGTTAGCAACTGTTGTGCTATATATATTTACCTTTTAAGAGGAGGAAT | 0.736 | – | – | – |
| ACAGACGAAGGAGCCGCTAAGAAGTTATTAAGAGATGAATAATCCCTCAATATAAATATCTCTCACTTATTTAAA | – | 0.126 | 0.135 | – |
| ACAGACGAAGGAGCCGCAAAGAAGTTATTAAGGGATGAATAATCACACAATATAAATATCTCTCACTTATTTAAA | – | 0.114 | 0.142 | – |
| ACAGACGAAGGAGCCGCAAAGAAGTTATTAAGGGATGAATAATCCCTCAACATAAACATCTCTCACTTATTTAAA | – | – | 0.215 | – |
| ACAGACGAAGGAGCCGCAAAGAAGTTATTAAGGGATGAATAACCCTTCAATATAAATATCTCTCACTTATTTAAA | – | – | 0.346 | – |
| ACAGACGAAGGAGCCGCAAAGAAGTTATTAAGGGATGAATAATCCCTCAATATCAATATCTCTCACTTATTTAAA | – | 0.126 | 0.103 | 0.216 |
| CGACATGTCCCGCTTCTTTCATTAATCCGTTAGCAACTTTTTTGCTATATACATTTACATTTTAAGAGGAGGAAT | 1.72 | – | – | – |
| ACAGACGAAGGAGCCGCAAAGAAGTTATTGAGGGATGAATAATCCCTAAATATAAATATCTCTCACTTATTTAAA | – | – | 0.897 | – |
| CGACATGTCCCGCTTCTTTCATTAATCCGTGAGCAACTGTTTTGCTTTATACATTTACCTTTTAAGAGGAGGAAT | 0.184 | – | – | – |
| ACAGACGAAGGAGCCGCAAAGAAGTTATTAATGGATGAATAATCCCTCTATATAAATATCTCTCACTTATTTAAA | – | – | 0.143 | – |
| CGACATGTCCCGCTTCTTTCATTAATTCGTTAGCAACTGATTTGCTATATACATTTACCTTTTAAGAGGAGGAAT | 0.876 | – | – | – |
| CGACATGTCCCGCTTCTTTCATTAATCAGTTAGCAACTGTTTTGCTATATAAATTTACCTTTTAAGAGGAGGAAT | 0.682 | – | – | – |
| ACAGACGAAGGAGCCGCAAAGAAGTTATTAAGGGATGAATTATCCTTCAATATAAATATCTCTCACTTATTTAAA | – | 0.232 | 0.284 | – |
| ACAGACGAAGGAGCCGCAAAGAAGTTATTAATGGATGAATAATCCATCAATATAAATATCTCTCACTTATTTAAA | – | 0.667 | 1.21 | – |
| ACAGACGAAGGAGCCGCAAAGAATTTATTAAGGGATGAATAATCCCTCAAAATAAATATCTCTCACTTATTTAAA | – | 0.198 | 0.273 | – |
| CGACATGTCCCGCTTCTTTCATTAATCCATTAGCAACTTTTTTGCTATATACATTTACCTTTTAAGAGGAGGAAT | 0.569 | – | – | – |
| ACAGACGAAGGAGCCGCAAACAAGTTATTAAGGGATGAATAATCCCTCAATATAAATTTCTCTCACTTATTTAAA | – | – | 0.298 | – |
| CGACATGTCCCGCTTCTTTCATTAATCCGTTAGCAACTGTGTTGCTATATACATTTACATTTTAAGAGGAGGAAT | 0.517 | – | – | – |
| ACAGACGAAGGAGCCGCAAAGAAGTTATTAAGGGATGAATAATCCCCCAATATAAACATCTCTCACTTATTTAAA | – | – | 0.291 | – |
| ACAGACGAAGGAGCCGCAAAGGAGTTATTAAGGGATGAATAATCCCTGAATATAAATATCTCTCACTTATTTAAA | – | – | 0.361 | – |
| ACAGACGAAGGAGCCGCAAAGAAGTTATTATGGGATTAATAATCCCTCAATATAAATATCTCTCACTTATTTAAA | – | 0.352 | 0.307 | – |
| ACAGACGAAGGAGCCGCAAAGAAGTTATTAATGGATTAATAATCCCTCAATATAAATATCTCTCACTTATTTAAA | – | 0.149 | 0.242 | – |
| ACAGACGAAGGAGCCGCTAAGAAGTTCTTAAGGGATGAATAATCCCTCAATACAAATATCTCTCACTTATTTAAA | – | – | 0.0591 | – |

| Sequence | cleaved RNA product abundance [1] | cleaved RNA product abundance [2] | cleaved RNA product abundance [3] | cleaved RNA product abundance [4] |
| --- | --- | --- | --- | --- |
| CGACATGTCCCGCTTCTTTCATTATTCCGTTAGCAACTGTTTCGCTATATACATTTACCTTTTAAGAGGAGGAAT | 0.509 | – | – | – |
| ACAGACGAAGGAGCCGCAAAGAAGTTATTAACGGCTGAATAATCCCTCAATATAAATATCTCTCACTTATTTAAA | – | 0.0646 | 0.0788 | – |
| CGACATGTCCCGCTTCTTTCATTAATCCGTTAGCAACTGTTTAGCTTTATACATTTACCTTTTAAGAGGAGGAAT | 0.192 | – | – | – |
| ACAGACGAAGGAGCCGCAAAGAAGTTATTAAGGTATGAATACTCCCTCAATATAAATATCTCTCACTTATTTAAA | – | 0.0931 | 0.135 | – |
| ACAGACGAAGGAGCCGCAAAGAAGTTATTAAGCGATGAATAATCCCTCAATATAAATATCTCTCACTTATTTAAA | – | 0.0916 | 0.116 | 0.132 |
| CGACATGTCCCGCTTCTTTCATTAATCCGTTAGCAAGTGTTTTGCTATTTACATTTACCTTTTAAGAGGAGGAAT | 0.163 | – | – | – |
| ACAGACGAAGGAGCCGCAAAGAAATTATTAAGGGATGAATAATCCCTAAATATAAATATCTCTCACTTATTTAAA | – | 0.458 | 0.667 | – |
| CGACATGTCCCGCTTCTTTCATTAATCCGTTAGCAACTGTATTGCTATATACATTTAACTTTTAAGAGGAGGAAT | 1.13 | – | – | – |
| CGACATGTCCCGCTTCTTTCATTAATCAGTTATCAACTGTTTTGCTATATACATTTACCTTTTAAGAGGAGGAAT | 0.307 | – | – | – |
| ACAGACGAAGGAGCCGCAAAGAAGTTATTAAGGGATGAATTATACCTCAATATAAATATCTCTCACTTATTTAAA | – | 0.139 | 0.162 | – |
| ACAGACGAAGGAGCCGCAAATAAGTTATTAAGGTATGAATAATCCCTCAATATAAATATCTCTCACTTATTTAAA | – | 0.169 | 0.139 | – |
| ACAGACGAAGGAGCCGCAAAGAAGTTATTAAGGGATTAATAATCCCTGAATATAAATATCTCTCACTTATTTAAA | – | – | 0.768 | – |
| ACAGACGAAGGAGCCGCAAAGAAGTTATTAAGGGATTAATCATCCCTCAATATAAATATCTCTCACTTATTTAAA | – | – | 1.2 | – |
| ACAGACGAAGGAGCCGCAAAGAAGTTAATAAGGGATGAATAATCACTCAATATAAATATCTCTCACTTATTTAAA | – | 0.112 | 0.109 | – |
| ACAGACGAAGGAGCCGCAAAGAACTTATCAAGGGATGAATAATCCCTCAATATAAATATCTCTCACTTATTTAAA | – | – | 0.32 | – |
| CGACATGTCCCGCTTCTTTCATTAATCCGTTCGCAACTGTTTTACTATATACATTTACCTTTTAAGAGGAGGAAT | 0.418 | – | – | – |
| ACAGACGAAGGAGCCGCAAAGAAGTTATAAAGGGATGAATAATGCCTCAATATAAATATCTCTCACTTATTTAAA | – | 0.113 | – | – |
| CGACATGTCCCGCTTCTTTCATTATTCTGTTAGCAACTGTTTTGCTATATACATTTACCTTTTAAGAGGAGGAAT | 1.94 | – | – | – |
| ACAGACGAAGGAGCCGCAAAGAAGTTATTAAGGGATGAATAATCCCTCAATATAAATCTCTCTCACTTATTTAAA | – | 0.652 | 0.679 | 0.701 |
| CGACATGTCCCGCTTCTTTCATTAATCCTTTAACAACTGTTTTGCTATATACATTTACCTTTTAAGAGGAGGAAT | 0.154 | – | – | – |
| ACAGACGAAGGAGCCGCTAAGAAGTTATTAAGGGATGAATAATCCCTCTATATAAATATCTCTCACTTATTTAAA | – | – | 0.509 | – |
| CGACATGTCCCGCTTCTTTCATTAATCCGTTAGCAATTTTTTTGCTATATACATTTACCTTTTAAGAGGAGGAAT | 1.16 | – | – | – |

— the supplement of paper PMC11780869
